{
  "source": "paper PMC5823917",
  "about": "“Sumoylation regulates FMRP-mediated dendritic spine elimination and maturation” (Nature Communications, 2018)",
  "proteins": {"B1": {"name": "FMRP (1-160 aa), N-terminal domain, GST-tagged and His-tagged copies (domain or fragment)", "chain": "not shown", "notes": "FMRP, N-terminal domain, residues 1-160; Two differently tagged copies of one fragment: GST-FMRP (1-160) held on glutathione beads and His-FMRP (1-160) in solution; each copy carries one tag, not both; also called GST-FMRP (1-160); His-FMRP (1-160 aa); source: E. coli BL21(DE3), purified (glutathione gel for GST-FMRP, Nickel resin for His-FMRP)"}},
  "target": "the molecule itself",
  "assay": "pull-down; GST-FMRP (1-160) 1 ug with 2 ug His-FMRP (1-160), 2 h at 4 °C in dimerization buffer (50 mM Tris-HCl pH 8, 150 mM NaCl, 2.5 mM MgCl2, 0.5% NP40, 0.5 mM DTT); glutathione beads, five washes; free GST as control",
  "data": [
    {"protein": "B1", "values": [
      {"measurement": "binding result", "value": "binds"}
    ]}
  ]
}
